Measurements taken from the Human Domainome abundance scans (Beltran et al. 2025).
± gives the uncertainty stated by the source.

B1: Ras GTPase-activating protein 1, residues 281 to 341; numbered along this chain, P20936 (parent)
chain: RRRVRAILPYTKVPDTDEISFLKGDMFIVHNELEDGWMWVTNLRTDEQGLIVEDLVEEVGR

Variants of: B1
Experiment: abundance fitness (aPCA) (normalised: wild type 0, dead -1); higher = more abundant; growth selection in yeast, the domain comes from the species named
Settings: Homo sapiens

RRRVRAILPYTKVPDTDEISFLKGDMFIVYNELEDGWMWVTNLRTDEQGLIVEDLVEEVGR [H30Y] and RRRVRAILPYTKVPDTDEISFLKGDMFIVHNELEWGWMWVTNLRTDEQGLIVEDLVEEVGR [D35W] are within error of each other in abundance fitness: -0.397 ± 0.034 for the first, -0.337 ± 0.054 for the second.

RRRVRAILPYTKVPDTDEISFLKGDMFIVHNELEKGWMWVTNLRTDEQGLIVEDLVEEVGR [D35K] and RRRVRAILPYTKVPDTDEISFLKGDMFIVHNELEPGWMWVTNLRTDEQGLIVEDLVEEVGR [D35P] are within error of each other in abundance fitness: -0.036 ± 0.062 for the first, -0.126 ± 0.044 for the second.

First: RRRVRAILPYTKVPDTDEISFLKGDMFIVHNELEIGWMWVTNLRTDEQGLIVEDLVEEVGR [D35I]
Second: RRRVRAILPYTKVPDTDEISFLKGDMFIVHNELERGWMWVTNLRTDEQGLIVEDLVEEVGR [D35R]
The abundance fitness of the first is lower: -0.487 ± 0.037 for the first, -0.035 ± 0.03 for the second.

RRRVRAILPYTKVPDTDEISFLKGDMFIVHNELEHGWMWVTNLRTDEQGLIVEDLVEEVGR [D35H] and RRRVRAILPYTKVPDTDEISFLKGDMFIVHNELEAGWMWVTNLRTDEQGLIVEDLVEEVGR [D35A] are within error of each other in abundance fitness: -0.038 ± 0.03 for the first, -0.024 ± 0.039 for the second.

RRRVRAILPYTKVPDTDEISFLKGDMFIVHNELECGWMWVTNLRTDEQGLIVEDLVEEVGR [D35C] and RRRVRAILPYTKVPDTDEISFLKGDMFIVHNELELGWMWVTNLRTDEQGLIVEDLVEEVGR [D35L] are within error of each other in abundance fitness: -0.163 ± 0.032 for the first, -0.207 ± 0.033 for the second.

Going from RRRVRAILPYTKVPDTDEISFLKGDMFIVHNELENGWMWVTNLRTDEQGLIVEDLVEEVGR [D35N] to RRRVRAILPYTKVPDTDEISFLKGDMFIVHNELEVGWMWVTNLRTDEQGLIVEDLVEEVGR [D35V], the abundance fitness falls from -0.025 ± 0.03 to -0.392 ± 0.036.

First: RRRVRAILPYTKVPDTDEISFLKGDMFIVHNELEGGWMWVTNLRTDEQGLIVEDLVEEVGR [D35G]
Second: RRRVRAILPYTKVPDTDEISFLKGDMFIVHNELEYGWMWVTNLRTDEQGLIVEDLVEEVGR [D35Y]
The abundance fitness of the first is higher: 0.015 ± 0.03 for the first, -0.268 ± 0.029 for the second.

Going from RRRVRAILPYTKVPDTDEISFLKGDMFIVHNELEFGWMWVTNLRTDEQGLIVEDLVEEVGR [D35F] to RRRVRAILPYTKVPDTDEISFLKGDMFIVHNELESGWMWVTNLRTDEQGLIVEDLVEEVGR [D35S], the abundance fitness rises from -0.182 ± 0.03 to -0.103 ± 0.026.

Going from RRRVRAILPYTKVPDTDEISFLKGDMFIVHNELEQGWMWVTNLRTDEQGLIVEDLVEEVGR [D35Q] to RRRVRAILPYTKVPDTDEISFLKGDMFIVHNELEMGWMWVTNLRTDEQGLIVEDLVEEVGR [D35M], the abundance fitness falls from 0.007 ± 0.07 to -0.142 ± 0.069.

RRRVRAILPYTKVPDTDEISFLKGDMFIVHNELETGWMWVTNLRTDEQGLIVEDLVEEVGR [D35T] and RRRVRAILPYTKVPDTDEISFLKGDMFIVHNELEEGWMWVTNLRTDEQGLIVEDLVEEVGR [D35E] are within error of each other in abundance fitness: -0.098 ± 0.034 for the first, -0.047 ± 0.062 for the second.

RRRVRAILPYTKVPDTDEISFLKGDMFIVHNELEDCWMWVTNLRTDEQGLIVEDLVEEVGR [G36C] and RRRVRAILPYTKVPDTDEISFLKGDMFIVHNELEDDWMWVTNLRTDEQGLIVEDLVEEVGR [G36D] are within error of each other in abundance fitness: -0.664 ± 0.035 for the first, -0.613 ± 0.038 for the second.

Compared with RRRVRAILPYTKVPDTDEISFLKGDMFIVHNELEDFWMWVTNLRTDEQGLIVEDLVEEVGR [G36F], RRRVRAILPYTKVPDTDEISFLKGDMFIVHNWLEDGWMWVTNLRTDEQGLIVEDLVEEVGR [E32W] is higher in abundance fitness: -0.951 ± 0.065 for the first, -0.103 ± 0.049 for the second.

First: RRRVRAILPYTKVPDTDEISFLKGDMFIVHNGLEDGWMWVTNLRTDEQGLIVEDLVEEVGR [E32G]
Second: RRRVRAILPYTKVPDTDEISFLKGDMFIVHNDLEDGWMWVTNLRTDEQGLIVEDLVEEVGR [E32D]
The abundance fitness of the first is lower: -0.299 ± 0.029 for the first, -0.026 ± 0.028 for the second.

RRRVRAILPYTKVPDTDEISFLKGDMFIVHNSLEDGWMWVTNLRTDEQGLIVEDLVEEVGR [E32S] and RRRVRAILPYTKVPDTDEISFLKGDMFIVHNVLEDGWMWVTNLRTDEQGLIVEDLVEEVGR [E32V] are within error of each other in abundance fitness: -0.019 ± 0.026 for the first, -0.018 ± 0.026 for the second.

Going from RRRVRAILPYTKVPDTDEISFLKGDMFIVHNPLEDGWMWVTNLRTDEQGLIVEDLVEEVGR [E32P] to RRRVRAILPYTKVPDTDEISFLKGDMFIVHNILEDGWMWVTNLRTDEQGLIVEDLVEEVGR [E32I], the abundance fitness rises from -0.35 ± 0.044 to 0.031 ± 0.03.

RRRVRAILPYTKVPDTDEISFLKGDMFIVHNKLEDGWMWVTNLRTDEQGLIVEDLVEEVGR [E32K] and RRRVRAILPYTKVPDTDEISFLKGDMFIVHNCLEDGWMWVTNLRTDEQGLIVEDLVEEVGR [E32C] are within error of each other in abundance fitness: 0.01 ± 0.054 for the first, -0.058 ± 0.029 for the second.

RRRVRAILPYTKVPDTDEISFLKGDMFIVHNTLEDGWMWVTNLRTDEQGLIVEDLVEEVGR [E32T] and RRRVRAILPYTKVPDTDEISFLKGDMFIVHNFLEDGWMWVTNLRTDEQGLIVEDLVEEVGR [E32F] are within error of each other in abundance fitness: 0.003 ± 0.031 for the first, -0.054 ± 0.031 for the second.

First: RRRVRAILPYTKVPDTDEISFLKGDMFIVHNALEDGWMWVTNLRTDEQGLIVEDLVEEVGR [E32A]
Second: RRRVRAILPYTKVPDTDEISFLKGDMFIVHNMLEDGWMWVTNLRTDEQGLIVEDLVEEVGR [E32M]
The abundance fitness of the first is lower: -0.068 ± 0.029 for the first, 0.017 ± 0.053 for the second.

RRRVRAILPYTKVPDTDEISFLKGDMFIVHNNLEDGWMWVTNLRTDEQGLIVEDLVEEVGR [E32N] and RRRVRAILPYTKVPDTDEISFLKGDMFIVHNRLEDGWMWVTNLRTDEQGLIVEDLVEEVGR [E32R] are within error of each other in abundance fitness: -0.07 ± 0.03 for the first, -0.053 ± 0.033 for the second.

RRRVRAILPYTKVPDTDEISFLKGDMFIVHNYLEDGWMWVTNLRTDEQGLIVEDLVEEVGR [E32Y] and RRRVRAILPYTKVPDTDEISFLKGDMFIVHWELEDGWMWVTNLRTDEQGLIVEDLVEEVGR [N31W] are within error of each other in abundance fitness: -0.03 ± 0.029 for the first, -0.043 ± 0.045 for the second.

First: RRRVRAILPYTKVPDTDEISFLKGDMFIVHCELEDGWMWVTNLRTDEQGLIVEDLVEEVGR [N31C]
Second: RRRVRAILPYTKVPDTDEISFLKGDMFIVHEELEDGWMWVTNLRTDEQGLIVEDLVEEVGR [N31E]
The abundance fitness of the first is lower: -0.129 ± 0.027 for the first, -0.038 ± 0.056 for the second.

Variant RRRVRAILPYTKVPDTDEISFLKGDMFIVHRELEDGWMWVTNLRTDEQGLIVEDLVEEVGR [N31R] has an abundance fitness of 0.073 ± 0.027.
